Measured values taken from publication PMC5549943.
Several values for one entry are separate records, joined by “and”; a condition that tells them apart may be missing. Identical values can stand only once.

Molecular target: Hepatitis B Virus core protein Cp149 dimer (Hepatitis B Virus)
Experiment: resistive-pulse sensing

Hepatitis B Virus core protein Cp149 dimer (domain or fragment)
stoichiometry N: 90 dimers and 120 dimers
